Test results from patent publication US20120178691A1, “FACTOR VIII COMPOSITIONS AND METHODS OF MAKING AND USING SAME” (Amunix Operating Inc., priority 2010, published 2012).

Tests used:
[1] = Analytical size exclusion chromatography of XTEN fusion proteins; format: physicochemical; details: for Apparent MW: SEC, calibrated with globular protein standards; for Apparent Molecular Weight Factor: apparent MW relative to actual MW; for RH: hydrodynamic radius from SEC
Method: Size exclusion chromatography analyses were performed on fusion proteins containing various therapeutic proteins and unstructured recombinant proteins of increasing length. […] Chromatogram profiles were monitored using OD214 nm and OD280 nm Column calibration for all assays were performed using a size exclusion calibration standard from BioRad; the markers include thyroglobulin (670 kDa), bovine gamma-globulin (158 kDa), chicken ovalbumin (44 kDa), equine myoglobuin (17 kDa) and vitamin B12 (1.35 kDa). […] Based on the SEC analyses for all constructs evaluated, including a […] composition, the apparent molecular weights, the apparent molecular weight factor (expressed as the ratio of apparent molecular weight to the calculated molecular weight) and the hydrodynamic radius (RH in nm) are shown in Table 16.

activation of factor X = test: Chromogenix Coamatic Factor VIII activity assay; format: biochemical
Text: BDD FVIII and FVIII-XTEN fusion protein constructs pBC0114, pBC0135, pBC0136, pBC0137, pBC0145, pBC0146, and pBC0149, in various configurations, including XTEN_AE288 and AG288 inserted at the C-terminus of the FVIII BDD sequence and FVIII-XTEN fusion proteins with AE42 and AE288 inserted after residue 745 (or residue 743) and before residue 1640 (or residue 1638) of the B-domain […], were expressed in transiently transfected Freestyle 293 cells, as described above, and tested for procoagulant activity. […] The assay was performed according to manufacturer's instructions using the end-point method, which was measured spectrophotometrically at OD405 nm A standard curve was created using purified FVIII protein at concentrations of 250, 200, 150, 100, 75, 50, 37.5, 25, 12.5, 6.25, 3.125 and 1.56 mU/ml. […] The cell culture media of the FVIII-XTEN constructs were obtained as described, above, and were tested in replicates at 1:50, 1:150, and 1:450 dilutions and the activity of each was calculated in U/ml.
Using the Chromogenix Coamatic Factor VIII (Chromogenix, cat#82258563) the activity of FVIII is assessed as follows. […] The color is then read spectrophotometrically at 405 nm The generated factor Xa and thus the intensity of color is proportional to the factor VIII activity in the sample. […]

FVIII activity = test: Two-stage chromogenic FVIII activity assay of transient transfection cell culture supernatant; format: biochemical; details: HEK293 cell culture supernatant, 5-day transient transfection
Method: Two FVIII-XTEN fusion proteins, FVIII-AE288 (F8X-40) and FVIII-AG288 (F8X-41), contain an AE288 XTEN or an […] XTEN, respectively, fused at the C-terminus of FVIII C2 domain. To determine if FVIII activity was retained after XTEN fusion, HEK293 cells were transfected separately with these two FVIII-XTEN fusion constructs by using polyethylenimine (PEI) in serum-free medium. At 3 or 5 days post-transfection, the cell culture supernatant was tested for FVIII activity by a two-stage chromogenic assay. Purified recombinant FVIII, calibrated against WHO international standard, was used to establish the standard curve in the chromogeinic assay. […] (Table 26).

B1: AC404 (protein)
chain: AVFVTQEEAHGVLHRRRRANAFLEELRPGSLERECKEEQCSFEEAREIFKDAERTKLFWISYSDGDQCASSPCQNGGSCKDQLQSYICFCLPAFEGRNCETHKDDQLICVNENGGCEQYCSDHTGTKRSCRCHEGYSLLADGVSCTPTVEYPCGKIPILEKRNASKPQGRIVGGKVCPKGECPWQVLLLVNGAQLCGGTLINTIWVVSAAHCFDKIKNWRNLIAVLGEHDLSEHDGDEQSRRVAQVIIPSTYVPGTTNHDIALLRLHQPVVLTDHVVPLCLPERTFSERTLAFVRFSLVSGWGQLLDRGATALELMVLNVPRLMTQDCLQQSRKVGDSPNITEYMFCAGYSDGSKDSCKGDSGGPHATHYRGTWYLTGIVSWGQGCATVGHFGVYTRVSQYIEWLQKLMRSEPRPGVLLRAPFPGSPGSPAGSPTSTEEGTSESATPESGPGTSTEPSEGSAPGSPAGSPTSTEEGTSTEPSEGSAPGTSTEPSEGSAPGTSESATPESGPGSEPATSGSETPGSEPATSGSETPGSPAGSPTSTEEGTSESATPESGPGTSTEPSEGSAPGTSTEPSEGSAPGSPAGSPTSTEEGTSTEPSEGSAPGTSTEPSEGSAPGTSESATPESGPGTSTEPSEGSAPGTSESATPESGPGSEPATSGSETPGTSTEPSEGSAPGTSTEPSEGSAPGTSESATPESGPGTSESATPESGPGSPAGSPTSTEEGTSESATPESGPGSEPATSGSETPGTSESATPESGPGTSTEPSEGSAPGTSTEPSEGSAPGTSTEPSEGSAPGTSTEPSEGSAPGTSTEPSEGSAPGTSTEPSEGSAPGSPAGSPTSTEEGTSTEPSEGSAPGTSESATPESGPGSEPATSGSETPGTSESATPESGPGSEPATSGSETPGTSESATPESGPGTSTEPSEGSAPGTSESATPESGPGSPAGSPTSTEEGSPAGSPTSTEEGSPAGSPTSTEEGTSESATPESGPGTSTEPSEGSAPGTSESATPESGPGSEPATSGSETPGTSESATPESGPGSEPATSGSETPGTSESATPESGPGTSTEPSEGSAPGSPAGSPTSTEEGTSESATPESGPGSEPATSGSETPGTSESATPESGPGSPAGSPTSTEEGSPAGSPTSTEEGTSTEPSEGSAPGTSESATPESGPGTSESATPESGPGTSESATPESGPGSEPATSGSETPGSEPATSGSETPGSPAGSPTSTEEGTSTEPSEGSAPGTSTEPSEGSAPGSEPATSGSETPGTSESATPESGPGTSTEPSEGSAPGSSS
For B1, which “Apparent MW” value [1] is on record?
The value was 1900 kDa.

And the “Apparent Molecular Weight Factor” value [1]?
Its value is 14.7.

And the RH [1]?
Its RH is 10.1 nm.

B2: pBC0114: base construct expressing BDD FVIII, pcDNA4-FVIII_4-…-Myc-SPATG-His, lacking XTEN insertions (protein)
chain: MQIELSTCFFLCLLRFCFSATRRYYLGAVELSWDYMQSDLGELPVDARFPPRVPKSFPFNTSVVYKKTLFVEFTDHLFNIAKPRPPWMGLLGPTIQAEVYDTVVITLKNMASHPVSLHAVGVSYWKASEGAEYDDQTSQREKEDDKVFPGGSHTYVWQVLKENGPMASDPLCLTYSYLSHVDLVKDLNSGLIGALLVCREGSLAKEKTQTLHKFILLFAVFDEGKSWHSETKNSLMQDRDAASARAWPKMHTVNGYVNRSLPGLIGCHRKSVYWHVIGMGTTPEVHSIFLEGHTFLVRNHRQASLEISPITFLTAQTLLMDLGQFLLFCHISSHQHDGMEAYVKVDSCPEEPQLRMKNNEEAEDYDDDLTDSEMDVVRFDDDNSPSFIQI
modifications: Myc and His tags
Which “Specific Activity” value (activation of factor X; activity (Chromogenix) per concentration (ELISA)) does the source give for B2 here?
Its value is 5000 IU/mg.

And the Activity (activation of factor X; cell culture medium of transiently transfected Freestyle 293 cells, Chromogenix Coamatic Factor VIII assay)?
Its Activity is 3.0 IU/ml.

B3: pBC 0114 (protein)
chain: B2 chain
What does the source list for B3?
FVIII activity (FVIII activity; Sample A): 6.68 IU/ml; FVIII activity (FVIII activity; Sample B): 7.61 IU/ml

B4: AC398 (protein)
chain: AVFVTQEEAHGVLHRRRRANAFLEELRPGSLERECKEEQCSFEEAREIFKDAERTKLFWISYSDGDQCASSPCQNGGSCKDQLQSYICFCLPAFEGRNCETHKDDQLICVNENGGCEQYCSDHTGTKRSCRCHEGYSLLADGVSCTPTVEYPCGKIPILEKRNASKPQGRIVGGKVCPKGECPWQVLLLVNGAQLCGGTLINTIWVVSAAHCFDKIKNWRNLIAVLGEHDLSEHDGDEQSRRVAQVIIPSTYVPGTTNHDIALLRLHQPVVLTDHVVPLCLPERTFSERTLAFVRFSLVSGWGQLLDRGATALELMVLNVPRLMTQDCLQQSRKVGDSPNITEYMFCAGYSDGSKDSCKGDSGGPHATHYRGTWYLTGIVSWGQGCATVGHFGVYTRVSQYIEWLQKLMRSEPRPGVLLRAPFPGSPGTSESATPESGPGSEPATSGSETPGTSESATPESGPGSEPATSGSETPGTSESATPESGPGTSTEPSEGSAPGSPAGSPTSTEEGTSESATPESGPGSEPATSGSETPGTSESATPESGPGSPAGSPTSTEEGSPAGSPTSTEEGTSTEPSEGSAPGTSESATPESGPGTSESATPESGPGTSESATPESGPGSEPATSGSETPGSEPATSGSETPGSPAGSPTSTEEGTSTEPSEGSAPGTSTEPSEGSAPGSEPATSGSETPGTSESATPESGPGTSTEPSEGSAPGSSS
Which results are given for B4?
Apparent MW [1]: 650 kDa; Apparent Molecular Weight Factor [1]: 8.5; RH [1]: 8.2 nm
